Reference: patent US5786195

Test system: T1, BssHII restriction endonuclease (bssHIIR) (Bacillus stearothermophilus H3)
T1 sequence: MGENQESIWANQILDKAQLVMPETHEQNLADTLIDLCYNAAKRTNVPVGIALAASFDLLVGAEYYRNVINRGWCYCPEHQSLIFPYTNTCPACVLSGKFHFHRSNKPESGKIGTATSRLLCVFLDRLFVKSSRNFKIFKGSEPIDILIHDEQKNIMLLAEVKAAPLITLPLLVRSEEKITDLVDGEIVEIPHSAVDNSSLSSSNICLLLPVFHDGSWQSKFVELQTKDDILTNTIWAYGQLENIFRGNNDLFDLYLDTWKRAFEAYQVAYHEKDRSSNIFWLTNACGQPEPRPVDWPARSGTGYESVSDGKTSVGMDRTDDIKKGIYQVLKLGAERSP
Test: cleavage_in_vitro
Details: cell extract; activity seen after 10- and 100-fold dilution

lambda DNA (BssHII sites)
activity (units per g wet cells): 100000
